# Measured values: patent US20250270584A1 (University of California, published 2025)
# B1: GLR3.3-3Flag (receptor)
# chain: EKPKVVKIGSIFSFDSVIGKVAKIAIDEAVKDVNSNPDILSGTKFSVSMQNSNCSGFMGMVEALRFMEKDIVGIIGPQCSVVAHMISHMANELRVPLLSFAVTDPVMSPLQFPYFIRTTQSDLYQMDAIASIVDFYGWKEVIAVFVDDDFGRNGVAALNDKLASRRLRITYKAGLHPDTAVNKNEIMNMLIKIMLLQPRIVVIHVYSELGFAVFKEAKYLGMMGNGYVWIATDWLSTNLDSSSPLPAERLETIQGVLVLRPHTPDSDFKREFFKRWRKMSGASLALNTYGLYAYDSVMLLARGLDKFFKDGGNISFSNHSMLNTLGKSGNLNLEAMTVFDGGEALLKDILGTRMVGLTGQLQFTPDRSRTRPAYDIINVAGTGVRQIGYWSNHSGLSTVLPELLYTKEKPNMSTSPKLKHVIWPGETFTKPRGWVFSNNGKELKIGVPLRVSYKEFVSQIRGTENMFKGFCIDVFTAAVNLLPYAVPVKFIPYGNGKENPSYTHMVEMITTGNFDGVVGDVAIVTNRTKIVDFTQPYAASGLVVVAPFKKLNSGAWAFLRPFNRLMWAVTGCCFLFVGIVVWILEHRTNDEFRGPPKRQCVTILWFSFSTMFFAHRENTVSTLGRLVLIIWLFVVLIINSSYTASLTSILTVQQLSSPIKGIESLRERDDPIGYQVGSFAESYLRNELNISESRLVPLGTPEAYAKALKDGPSKGGVAAIVDERPYVELFLSSNCAYRIVGQEFTKSGWGFAFPRDSPLAIDLSTAILELAENGDLQRIHDKWLMKNACTLENAELESDRLHLKSFWGLFLICGVACLLALFLYFVQIIRQLYKKPTDDAIARDQQQNHDSSSMRSTRLQRFLSLMDEKEESKHESKKRKIDGSMNDTSGSTRSRGFDRERSFNSVNPLD
# notes: Bait of the IP-MS, expressed in the glr3.3/glr3.6 mutant background; also called p35S::GLR3.3-3Flag; not shown: C-terminal 3Flag tag of vector pCambia1300-3Flag
# B2: GLR3.3-EGFP (receptor)
# chain: B1 chain
# notes: Used in the Co-IP with anti-GFP magnetic agarose; also called pGLR3.3::GLR3.3-EGFP; not shown: EGFP fusion partner
# B3: MBP-CD2 (other, not shown: large carriers)
# chain: LYFVQIIRQLYKKPTDDAIARMDEKEESKHESKKRKIDGSMNDTSGSTRSRGFDRERSFNSVNPLD
# notes: domain: CTD
# Legend:
# CaM7 (calmodulin 7) = target: T1, CaM7 (calmodulin 7) (Arabidopsis thaliana, UniProt P59220 1-149); assay: IP-MS, anti-Flag IP of GLR3.3-3Flag from leaves of transgenic plants; co-enrichment, may be indirect
# T1 construct: also called AT3G43810; pBudCE4.1-EF-1α-CaM7
# 3Flag-CaM7 = target: T2, 3Flag-CaM7 (Arabidopsis thaliana, UniProt P59220 1-149); assay: Co-IP with anti-GFP agarose from transgenic plants expressing GLR3.3-EGFP and 3Flag-CaM7
# T2 construct: also called p35S::Flag-CaM7
# GST-CaM7 = target: T3, GST-CaM7 (Arabidopsis thaliana, UniProt P59220 1-149); assay: pull-down with CTD deletion variants
# T3 construct: also called pGEX-CaM7
binder,measurement,setting,value
B1,binding result,CaM7 (calmodulin 7),binds
B2,binding result,3Flag-CaM7,binds
B3,binding result,GST-CaM7,no binding
